Results: a protein production outcome set (Wang et al. 2014)

assay: label from the status in PepcDB records

Q: For “MLGGVIVVKKAIAALGIGAVAVSVSSINASALEKGTVTASALNIRSGPSSDCDKVAKLYKGKTVEILEKSNGWYKVRVSSSVVGWGSAKYISTSGSSEGTSSQNNSTSSGTTISGNGKVNVSSRLNVRSGAGTNYSLVGKANNGDVVKLLEQSNGWYKIKLSNGVTGWASSQYISKTSEDVGTNNSSNSNSTNNSDKKPSSEESIEGKNGKVTSAVSLNVRSGPGTSYSIIGKLNGGDVVELKAKSNGWYKVKLSSGTIGWVSASYISETNEDTKEKPNSSSNQNSQSNSNSKPSFTGNSDKSTAKGSTIVDFAYTLIGIPYQWGASGPDKFDCSGFTQYVFKHSVGVSIPRVSREQANFGSAISMGNYAPGDLVYFDTDGDGTTNHVGIYVGNSKFIHCSGTQTNPNKVKVDNLTSSYWSKVLLGARRFV”, which protein production is on record?
A: The protein production was “failed”.

Q: Which protein production does the source give for “MLGKSQKDDHKTTFNKHKKTFSIIVAIKDESKQVIESLVENLKRINYERYEVIIVSDDDESKFREYLEIKFPENFRLIRRESNSGGKAGALNFASRISKGDYLVFMDADARVNEDFLQRLNNKDYVACSLKIIIYDTSTSIQSYYAEFTEKVMDMMFKGRSKLGLPIFPNGSAFSIRRDTLLSIGGWKENAIAEDLELGIRMYLNDLKNLFYDDVVVFLKSPYTLMDLYNQIQRWSYGSSQLLKSSLKLLKKGIKGFEGLLYSQQWVIYPLFFTVLGVYGILTPVFNITQTYLLLLILIYGISVVFYSQVLNQKRVDIKILKTILDASITGYLKGLFGLKYKWRVTPKILDKGGRLIEDNNIPLISIPFYLISFFDASMGFVLSSIVILLVALIESF” here?
A: The protein production was “failed”.

Q: Which protein production does the source give for “MLGYLLLYMIFGGILLAYGSDWFIEGSTRVAKHFNVSNFVIGATIVAFGTSLPEIVTSSGAALSGSPGLAVGNAIGSCIANIGIILGISVLMYPLIIKKRAIIKNGNIYLIATILLVILGYNGFSRFDGLILFLFMIIYVIYTIKTSESDEEEIISDITVKKASIFIVVGLLAVILGSDLFIGGAKGIAEYFNVPESIIGFSLVAFGTSLPELASSVAAAKRKLGSIVLGNVIGSNIANTCVALSFSAMIVDIPKYNVELMVNTIMALLIIFTMNREKIKKMLNFKNFRTDYFSKIDRIDGISYILIYLIFLAYLLGYIF” here?
A: Its protein production is “failed”.

Q: Which protein production does the source give for “MLHGFLRLAAGAGRSLAVPAILLALGAPAQAGSLLEDCANDKLTPPNRIVACTNVLEDKAASASDQAVAYFNRANALDRNGEFDRAIADYDKAIAFNPKDAEAFNNRGLIWGHKKDFDRALADYDKAIELNPQIAIAYANRGLIWNDIKHDYVKAIADFDKAIRLDPENNGLYNLRGNAYLRKGDYDQAITSYSQAIFLDSQDPNQYFNLGLAWTTKGNLERAIADYSQAISLDANHAEAYRWRADAWVKRGDTDQALSDYTEAIRLDPGDAETFRNRARIWERKRDYDRAIADYDQAIAFAPNDAVAYNGRGWMWSLKHETDRAIVDYVKATAFDPNYVLAYDNLGLAWWDKGDLDRAISAFDQAVIVDPKYAPAYNDRGLARMDKNQYDLAIADYNMAILIDAGFVSAYRNRGNAWNRKGQFDYAIADFDQAIDHDPDDADAYVGRGRSRIYKADYTKAIADLDQAIRIGPKSARAHDTRGLAMVYKADYAGALADYDEAIRLSPKNASAYRNRGIASFYFGPPAKAQADFEQAAAIKPGDSYHAIWLDLARRRNGQPSILVDAKLDMTRWPAAVVRLLLGQQTPEATLLAADNPDATKKSEQLCEANFYVAEFQRLQHHDEEALRLYRLALGGCPRDFIEYTAATSALRVMGKAP” here?
A: The protein production was “failed”.

Q: Which protein production does the source give for “MLHGKGCKKDVKIIVWSGLLFLCLAARALATGVVGYLPMSDGEYAQKRALKPLLTLPYSVSPDQTWHFRQVGVSGVTLLPEPKKDNEWRISGKDRAGNSWVVPVGRLINLAGNAQFYRADLDRNGIQDLVIWLGNPGLGLAPSAQYIIFTFLKNGRPCVFEPWGFYTATDTGVDDLLDLQGNGRTQLLDMQFDSGYWITNLYQVKDARWQRVHGWFGRLSYPALTRFNHYPGRKLIIKPIAGRNPQTDDLSLTQRCLIRGNVLPGVNQD” here?
A: Its protein production is “failed”.

Q: Which protein production does the source give for “MLHHVEINVDHLEESIAFWDWLLGELGYEDYQSWSRGKSYKHGKTYLVFVQTEDRFQTPTFHRKRTGLNHLAFHAASREKVDELTQKLKERGDPILYEDRHPFAGGPNHYAVFCEDPNRIKVEIVAP” here?
A: Its protein production is “not failed”.

Q: With “MLHTEKVEYVNQAHEDITGIARDKSIGTNLRDLTFFRQHNALAEQTLAKIFRGDQAKGEVQFSRTDGSRYWLKYIVSQFITDRGNHYALVSGEENSDEHLEHHHHHH” as the sequence, how does the protein production read?
A: Its protein production is “failed”.

Q: For “MLHVHILSWVLAIILFIATYLNYSKTQGASPYYKPLHMALRLFMLLTLISGFWELIEEFMAASNGEGGNHMLLTLKMLCGLAVIAFMEISIAKRKKQQTSHKFFWITIILIIITMAIGVILPWGPISKIFGIS”, which protein production is on record?
A: Its protein production is “failed”.

Q: With “MLIFGFIGLFFLNIFSLHAQGIVTNKDAQEEFKWALNSYNNGIYDDALLSFKKILSFDPNNLDYHFWTGNVYYRLGYVEEALMEWRNLKDQGYKVPYLRHLISTIEQRRGIFSNYELNFKKLVKVASLDNSIYKRPHGYQITSLRADKYGGYYAANFVGNEILYFDVNNNVNALVKDGFSYLKSPYDVIEANNLLYVTLYSSDEIGVYDKVLGVKRKSIGNKGTKDGELLAPQYMAIDKRNYIYVSEWGNKRVSKFGLEGDFILHFGSRTSGYKGLLGPTGVTYLNENIYVADSLRNTIEVFDTSGNHLYSVFTSIEGIEGLSSDFVGNNVIVSSKDGVYKYSIAKKTITKILKADKMNSKISSSILDANNQMIVSDFNNAKVSVYKSDASLYDSLNVDVRRIIRLGGPKIYVELNVSSKSGLPVVGLKSENFSISNENYYIVNPKVAYNVNASKDINIAVVFDKSSYMKKYDTDQIVGLNALMELSKNKNFSFINATSVPIIDNIESLTNSIRNTSSLGPYSTDAVKTDVSLKLAGSGLMSKSSRRAVVYFSGGILNRKAFEKYSLDTIVSYYKNNDIRFYLILFGNDPINSKLQYLVNETGGAVIPFSSYEGVSKVYDLILEQKTGTYLLEYYYPGPQEPNKYFNLSVEANINQQTGRGEFAYFINLEHHHHHH” as the sequence, how does the protein production read?
A: The protein production was “failed”.

Q: With “MLIINKLNHAQKQLEKLNFIPQQADKVDFLASSSEFKARILQLINTAKSRIYLTALYFEQDEAGQQILAALYQAKLANPALDIQILVDWHRAQRGRIGEKTTSSNADWYANMKQQYNLPPEQEIAVWGVPINGREIFGVLHLKGFIFDDTILYSGASINNVYLQQFDRYRYDRYHTLENKVLADSLVTFLQQHILTDHAVNRLDNMQRPVTANIRPAIKAFRKQLTKQQYQFAEQPESNGLMLSPIAGLGRKNQLNKTIEALFYKTQNKLTICTPYFNFPRSLITRIKWLLENGKQVEIIAGDKKANDFYTPPDKKFTMAAALPYLYEKNLRAFAKRFDSYIQNKLLTIRLWKDGENTYHLKGLWVDNRYILLTGNNLNPRAWGLDAENGILLDDPKAELAEKAALELTQIRTFTQELSHYSDLETIKDYPLEVQKLLKKFGRVKLDKIIKMLLLEHHHHHH” as the sequence, how does the protein production read?
A: Its protein production is “failed”.

Q: With “MLIITYISACILFLVSFSHVYWAFGGNWGTNSVIPTKAGEKAFTPRAGMTLVIALLLSMAAIILLQQANIVHFAVPNVIIQVGSWICMIVFSIRVIGEFNYFGIFKRQKDTHFARMDTGLYIPLCAFLSLSFLLAIIL” as the sequence, how does the protein production read?
A: Its protein production is “failed”.

Q: For “MLILVILLVLVALAFDFINGFHDAANSIATVVSTRVLSPLVAVGWAAFFNFISAMPVLWGAELKVAATMGKGIVHFEQLKAGGISLVLMVVFAALMGAIVWNLLTWWWGLPSSSSHALAGGMIGASLPPLGFAGLIPSGILKIAAFIVLSPLIGMVLGSAMMVATAWVVRKNTPARVDRWFRRLQLVSAAIFSYSHGTNDAQKVMGIISVILYGTIWADRAAMTPGHFPVPFWVVLSCHAAIGLGTMFGGWRIVRTMGHNLTKLQPIGGFCAETGGGVTILALAHFGIPVSTTHTITGAIVGVGSTKGTRAVRWGVAGRIIWAWIFTIPAAAIVAGVIFLVTRAIVSVIGVG”, which protein production is on record?
A: The protein production was “failed”.

Q: Which protein production does the source give for “MLINKTKRAEQNLNNLPFLALQAEQIEFLGSSAEFKTQIIELIRNAKKRIYVTALYWQKDEAGQEILDEIYRVKQENPHLDVKVLIDWHRAQRNLLGAEKSATNADWYCEQRQTYQLPDDPNMFFGVPINTREVFGVLHVKGFVFDDTVLYSGASINNVYLHQFEKYRYDRYQKITHAELADSMVNFINDYLLDFSAVYPLDVTNRPRTKEIRGNIRAYRKDLAQNGEYSLKSAVKLPNVLSVSPLFGLGASGNELNQVIEDLFLQVQKKLVICTPYFNFPRTLQHKIATLLENGKRVEIIVGDKVANDFYIPPEQPFKMAGALPYLYESNLRRFCEKFETQIESGQLVVRLWRDGDNTYHLKGVWVDDRYILLTGNNLNPRAWRLDAENGLLIYDPQQQLLAQVEKEQNQIRQHTKVLKHYTELEELNQYPEPVQKLLKKFARIKADKLVKMIL” here?
A: The protein production was “not failed”.
